Article PMC8992277 (ACS Omega, 2022)

Molecular target: T1, Human neuroglobin (human, UniProt Q9NPG2 1-151)
T1 sequence (looked up): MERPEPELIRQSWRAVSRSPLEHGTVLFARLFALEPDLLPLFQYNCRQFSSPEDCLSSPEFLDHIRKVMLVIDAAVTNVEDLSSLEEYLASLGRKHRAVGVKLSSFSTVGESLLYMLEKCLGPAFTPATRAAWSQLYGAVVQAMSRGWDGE
Assay: ITC

Ka: 5300 M⁻¹
Kd: 189 µM
dH, fold of that of WT hCyt c binding to Ngb: ~6 fold
B1: Human cytochrome c I81N variant (natural protein)
chain: not shown
modifications: heme c covalently linked to the peptide chain via two thioether bonds through the CXXCH motif
